Source: patent publication US20190062394A1

Assays:
Destabilized IL-12 #2 [1] = tested on: Destabilized IL-12 #2
Destabilized IL-12 #5 [2] = tested on: Destabilized IL-12 #5
Destabilized IL-12 #2 [3] = assay: cell-based or functional assay
Destabilized IL-12 #5 [4] = assay: cell-based or functional assay
Destabilized IL-12 #12 = target: T1, Destabilized IL-12 #12
T1 chain: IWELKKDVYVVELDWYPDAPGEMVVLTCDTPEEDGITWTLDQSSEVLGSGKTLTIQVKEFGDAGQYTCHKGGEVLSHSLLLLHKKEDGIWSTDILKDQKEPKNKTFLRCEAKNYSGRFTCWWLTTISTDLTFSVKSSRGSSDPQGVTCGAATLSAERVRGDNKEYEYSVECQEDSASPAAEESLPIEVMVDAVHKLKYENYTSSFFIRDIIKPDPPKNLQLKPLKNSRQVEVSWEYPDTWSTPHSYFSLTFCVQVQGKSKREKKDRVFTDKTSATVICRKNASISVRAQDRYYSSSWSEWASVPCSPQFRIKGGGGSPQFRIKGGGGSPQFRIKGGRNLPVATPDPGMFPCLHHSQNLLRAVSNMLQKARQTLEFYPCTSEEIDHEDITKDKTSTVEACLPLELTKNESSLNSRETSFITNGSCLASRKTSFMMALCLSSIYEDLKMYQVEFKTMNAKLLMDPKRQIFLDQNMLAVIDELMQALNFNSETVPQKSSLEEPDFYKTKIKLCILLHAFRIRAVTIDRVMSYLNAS

Destabilized IL-12 #11 = target: T2, Destabilized IL-12 #11
T2 chain: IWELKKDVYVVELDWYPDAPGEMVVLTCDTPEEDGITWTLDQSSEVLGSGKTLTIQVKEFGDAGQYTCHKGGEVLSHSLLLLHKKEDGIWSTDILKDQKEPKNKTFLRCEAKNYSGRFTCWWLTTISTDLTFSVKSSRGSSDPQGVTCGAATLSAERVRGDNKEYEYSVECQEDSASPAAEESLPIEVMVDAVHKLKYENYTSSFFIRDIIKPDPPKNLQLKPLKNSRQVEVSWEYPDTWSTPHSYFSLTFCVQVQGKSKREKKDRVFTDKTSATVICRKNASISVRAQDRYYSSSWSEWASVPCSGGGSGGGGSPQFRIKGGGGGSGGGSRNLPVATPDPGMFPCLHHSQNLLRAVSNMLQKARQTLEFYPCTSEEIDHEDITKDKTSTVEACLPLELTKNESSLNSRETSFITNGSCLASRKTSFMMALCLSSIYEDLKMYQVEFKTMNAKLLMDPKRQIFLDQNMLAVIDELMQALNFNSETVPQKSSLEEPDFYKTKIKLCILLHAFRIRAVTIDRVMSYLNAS

Destabilized IL-12 #27 = target: T3, Destabilized IL-12 #27
T3 chain: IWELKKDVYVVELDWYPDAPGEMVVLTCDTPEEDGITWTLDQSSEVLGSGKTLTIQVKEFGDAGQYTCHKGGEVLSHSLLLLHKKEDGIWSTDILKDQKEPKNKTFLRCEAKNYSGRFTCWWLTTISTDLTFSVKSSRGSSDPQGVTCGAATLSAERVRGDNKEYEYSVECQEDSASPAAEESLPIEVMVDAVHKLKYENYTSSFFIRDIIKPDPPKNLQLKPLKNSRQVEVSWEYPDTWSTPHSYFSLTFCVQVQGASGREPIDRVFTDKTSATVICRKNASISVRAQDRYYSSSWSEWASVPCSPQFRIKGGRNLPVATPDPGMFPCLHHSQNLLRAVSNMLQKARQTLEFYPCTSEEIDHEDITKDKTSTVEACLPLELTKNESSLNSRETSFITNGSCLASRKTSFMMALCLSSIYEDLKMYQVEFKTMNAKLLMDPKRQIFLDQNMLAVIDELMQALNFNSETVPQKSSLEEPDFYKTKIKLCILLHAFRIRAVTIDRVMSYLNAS

Destabilized IL-12 #21 = target: T4, Destabilized IL-12 #21
T4 chain: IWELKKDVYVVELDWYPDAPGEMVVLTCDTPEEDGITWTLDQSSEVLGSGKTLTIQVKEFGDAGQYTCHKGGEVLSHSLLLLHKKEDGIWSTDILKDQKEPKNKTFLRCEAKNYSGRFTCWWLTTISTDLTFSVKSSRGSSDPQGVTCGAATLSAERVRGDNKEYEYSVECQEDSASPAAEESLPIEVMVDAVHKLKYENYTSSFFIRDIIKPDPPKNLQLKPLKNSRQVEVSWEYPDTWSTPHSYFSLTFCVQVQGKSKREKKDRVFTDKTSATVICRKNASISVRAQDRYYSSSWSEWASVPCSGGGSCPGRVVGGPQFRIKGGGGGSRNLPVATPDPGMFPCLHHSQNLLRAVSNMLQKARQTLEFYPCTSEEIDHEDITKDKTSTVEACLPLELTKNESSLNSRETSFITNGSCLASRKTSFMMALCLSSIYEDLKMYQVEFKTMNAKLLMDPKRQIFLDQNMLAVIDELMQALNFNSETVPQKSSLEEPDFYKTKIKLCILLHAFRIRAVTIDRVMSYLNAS

Destabilized IL-12 #18 = target: T5, Destabilized IL-12 #18
T5 chain: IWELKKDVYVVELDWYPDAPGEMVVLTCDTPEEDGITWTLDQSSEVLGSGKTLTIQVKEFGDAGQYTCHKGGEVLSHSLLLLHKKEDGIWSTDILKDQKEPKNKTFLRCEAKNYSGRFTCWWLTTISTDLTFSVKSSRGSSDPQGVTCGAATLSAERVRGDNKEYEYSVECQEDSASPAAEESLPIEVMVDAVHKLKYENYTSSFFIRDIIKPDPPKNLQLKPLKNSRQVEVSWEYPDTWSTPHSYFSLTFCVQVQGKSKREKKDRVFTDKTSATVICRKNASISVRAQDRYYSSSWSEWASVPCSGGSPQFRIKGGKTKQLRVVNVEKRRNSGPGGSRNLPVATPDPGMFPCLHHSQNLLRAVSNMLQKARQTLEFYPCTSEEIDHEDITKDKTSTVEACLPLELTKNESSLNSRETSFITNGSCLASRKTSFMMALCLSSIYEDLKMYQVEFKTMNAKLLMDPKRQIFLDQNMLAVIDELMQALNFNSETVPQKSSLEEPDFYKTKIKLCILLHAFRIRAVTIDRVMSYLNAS

Sequence of Destabilized IL-12 #4 (chain, as listed by the source): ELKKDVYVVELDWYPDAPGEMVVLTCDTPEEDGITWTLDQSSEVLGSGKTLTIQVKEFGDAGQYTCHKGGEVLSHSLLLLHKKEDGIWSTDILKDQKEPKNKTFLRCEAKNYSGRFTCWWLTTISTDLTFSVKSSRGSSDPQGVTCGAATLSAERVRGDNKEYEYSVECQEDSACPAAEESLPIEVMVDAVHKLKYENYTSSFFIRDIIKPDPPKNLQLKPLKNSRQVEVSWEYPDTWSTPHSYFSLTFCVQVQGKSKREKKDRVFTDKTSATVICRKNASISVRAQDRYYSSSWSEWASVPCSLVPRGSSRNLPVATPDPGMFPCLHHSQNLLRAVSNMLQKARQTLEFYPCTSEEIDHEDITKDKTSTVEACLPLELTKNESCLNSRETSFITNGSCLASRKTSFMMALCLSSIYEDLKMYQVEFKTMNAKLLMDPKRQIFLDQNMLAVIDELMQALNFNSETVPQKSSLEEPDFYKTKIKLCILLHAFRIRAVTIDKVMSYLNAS

thrombin
fold reduction in biological activity (NK-92 assay) after thrombin digestion, against wild-type single chain IL-12 (Destabilized IL-12 #4): (~1.5 fold decrease*) | thrombin cleavage (67 U/mL, 20 hours, 37 degrees C), anti-p35 immunoblot, non-reducing conditions (Destabilized IL-12 #4): under non-reducing conditions, thrombin cleavage of Destabilized #4 was not detected | thrombin cleavage (67 U/mL, 20 hours, 37 degrees C), anti-p35 immunoblot, reducing conditions (Destabilized IL-12 #4): Under reducing conditions, thrombin cleavage of all three IL-12 mutants was detected | thrombin cleavage (67 U/mL, 20 hours, 37 degrees C), anti-p40 immunoblot, non-reducing conditions (Destabilized IL-12 #4): under non-reducing conditions, thrombin cleavage of Destabilized #4 was not detected | thrombin cleavage (67 U/mL, 20 hours, 37 degrees C), anti-p40 immunoblot, reducing conditions (Destabilized IL-12 #4): Under reducing conditions, thrombin cleavage of all three IL-12 mutants was detected | fold reduction in biological activity (NK-92 assay) after thrombin digestion, against wild-type single chain IL-12 (Destabilized IL-12 #2 [1]): (~11 fold decrease*) | thrombin cleavage (67 U/mL, 20 hours, 37 degrees C), anti-p35 immunoblot, reducing conditions (Destabilized IL-12 #2 [1]): Under reducing conditions, thrombin cleavage of all three IL-12 mutants was detected | thrombin cleavage (67 U/mL, 20 hours, 37 degrees C), anti-p40 immunoblot, reducing conditions (Destabilized IL-12 #2 [1]): Under reducing conditions, thrombin cleavage of all three IL-12 mutants was detected | fold reduction in biological activity (NK-92 assay) after thrombin digestion, against wild-type single chain IL-12 (Destabilized IL-12 #5 [2]): (~9 fold decrease*) | thrombin cleavage (67 U/mL, 20 hours, 37 degrees C), anti-p35 immunoblot, reducing conditions (Destabilized IL-12 #5 [2]): Under reducing conditions, thrombin cleavage of all three IL-12 mutants was detected | thrombin cleavage (67 U/mL, 20 hours, 37 degrees C), anti-p40 immunoblot, reducing conditions (Destabilized IL-12 #5 [2]): Under reducing conditions, thrombin cleavage of all three IL-12 mutants was detected

thrombin (enzyme)
thrombin dose needed to reduce IFNg secretion of NK-92 cells (HTRF) (Destabilized IL-12 #2 [3]): 10 U/mL | thrombin dose needed to reduce IFNg secretion of NK-92 cells (HTRF) (Destabilized IL-12 #5 [4]): 10 U/mL

B1: human Plasmin (23.3 Units/mg; Millipore) (protein)
chain: KVYLSECKTGNGKNYRGTMSKTKNGITCQKWSSTSPHRPRFSPATHPSEGLEENYCRNPDNDPQGPWCYTTDPEKRYDYCDILECEEECMHCSGENYDGKISKTMSGLECQAWDSQSPHAHGYIPSKFPNKNLKKNYCRNPDRELRPWCFTTDPNKRWELCDIPRCTTPPPSSGPTYQCLKGTGENYRGNVAVTVSGHTCQHWSAQTPHTHNRTPENFPCKNLDENYCRNPDGKRAPWCHTTNSQVRWEYCKIPSCDSSPVSTEQLAPTAPPELTPVVQDCYHGDGQSYRGTSSTTTTGKKCQSWSSMTPHRHQKTPENYPNAGLTMNYCRNPDADKGPWCFTTDPSVRWEYCNLKKCSGTEASVVAPPPVVLLPDVETPSEEDCMFGNGKGYRGKRATTVTGTPCQDWAAQEPHRHSIFTPETNPRAGLEKNYCRNPDGDVGGPWCYTTNPRKLYDYCDVPQCAAPSFDCGKPQVEPKKCPGRVVGGCVAHPHSWPWQVSLRTRFGMHFCGGTLISPEWVLTAAHCLEKSPRPSSYKVILGAHQEVNLEPHVQEIEVSRLFLEPTRKDIALLKLSSPAVITDKVIPACLPSPNYVVADRTECFITGWGETQGTFGAGLLKEAQLPVIENKVCNRYEFLNGRVQSTELCAGHLAGGTDSCQGDSGGPLVCFEKDKYILQGVTSWGLGCARPNKPGVYVRVSRFVTWIEGVMRNN
proteolytic digestion, 1 hour, reducing SDS-PAGE and anti-p40 Western blot (Destabilized IL-12 #12): Partial digestion of DSIL-12#11, DSIL-12#12, DSIL-12#21 and DSIL-12#18 was detected with as little as 0.05 mU of plasmin | proteolytic digestion, 1 hour, reducing SDS-PAGE and anti-p40 Western blot (Destabilized IL-12 #11): Partial digestion of DSIL-12#11, DSIL-12#12, DSIL-12#21 and DSIL-12#18 was detected with as little as 0.05 mU of plasmin | proteolytic digestion, 1 hour, reducing SDS-PAGE and anti-p40 Western blot (Destabilized IL-12 #27): 2.5 mU of plasmin were required for partial digestion of DSIL-12#27 | proteolytic digestion, 1 hour, reducing SDS-PAGE and anti-p40 Western blot (Destabilized IL-12 #21): Partial digestion of DSIL-12#11, DSIL-12#12, DSIL-12#21 and DSIL-12#18 was detected with as little as 0.05 mU of plasmin | proteolytic digestion, 1 hour, reducing SDS-PAGE and anti-p40 Western blot (Destabilized IL-12 #18): Partial digestion of DSIL-12#11, DSIL-12#12, DSIL-12#21 and DSIL-12#18 was detected with as little as 0.05 mU of plasmin
